# Laboratory results taken from patent US20240166742A1, “MOLECULES THAT BIND TO AND STABILIZE TRIGGERING RECEPTOR EXPRESSED ON MYELOID CELLS 2 (TREM2)” (Novartis AG, priority 2015, published 2024).
# [NapdU] = code of the source, not defined here
# T1: cell surface human TREM2 on primary human M2a macrophages (Homo sapiens, UniProt Q9NZC2)
# T1 construct: Human M2a macrophages were generated from monocytes isolated from buffy coats; endogenous in cells; host or cells: primary human M2a macrophages differentiated from buffy-coat monocytes (MCSF + IL4)
# T1 sequence (Q9NZC2 19-230): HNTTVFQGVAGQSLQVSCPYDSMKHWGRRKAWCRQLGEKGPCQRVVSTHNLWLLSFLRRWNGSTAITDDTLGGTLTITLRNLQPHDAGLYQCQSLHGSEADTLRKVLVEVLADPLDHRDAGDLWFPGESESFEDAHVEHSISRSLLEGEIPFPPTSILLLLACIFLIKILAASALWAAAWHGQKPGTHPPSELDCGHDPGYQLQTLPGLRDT
# T2: human TREM2 stalk region Peptide 76
# T2 chain: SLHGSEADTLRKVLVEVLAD
# T3: human TREM2 stalk region Peptide 77
# T3 chain: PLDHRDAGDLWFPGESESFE
# T4: human TREM2 stalk region Peptide 80
# T4 chain: ESESFEDAHVEH
# T5: human TREM2 stalk region Peptide 78
# T5 chain: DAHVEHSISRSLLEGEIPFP
# T6: human TREM2 stalk region Peptide 79
# T6 chain: VEVLADPLDHRD
# B1: Human TACE (ADAM-17) recombinant catalytic domain (protein)
# chain: RADPDPMKNTCKLLVVADHRFYRYMGRGEESTTTNYLIELIDRVDDIYRNTSWDNAGFKGYGIQIEQIRILKSPQEVKPGEKHYNMAKSYPNEEKDAWDVKMLLEQFSFDIAEEASKVCLAHLFTYQDFDMGTLGLAYVGSPRANSHGGVCPKAYYSPVGKKNIYLNSGLTSTKNYGKTILTKEADLVTTHELGHNFGAEHDPDGLAECAPNEDQGGKYVMYPIAVSGDHENNKMFSNCSKQSIYKTIESKAQECFQERSNKV
# Tests used:
# [1] = target: T1, cell surface human TREM2 on primary human M2a macrophages; test: TREM2 surface stabilization by SOMAmers on primary human M2a macrophages (flow cytometry); format: cell-based; details: 37° C. for 3 hours
# Experimental: Human M2a macrophages were generated from monocytes isolated from buffy coats by negative selection. M2a macrophages were generated by 5-6 days differentiation of monocytes in RPMI (supplemented 10% fetal bovine serum, and typical concentrations of Glutamax, Sodium pyruvate, Non Essential Amino Acids, HEPES) with MCSF 40 ng/mL (R&D) and 50 ng/mL IL4 (R&D). M2a macrophages were harvested with cell dissociation buffer (Gibco 13151-014) and cell surface TREM2 was assessed by flow cytometry as described below.
# Cells were stained for TREM2 surface expression in FACS buffer (PBS, containing 10% heat-inactivated human serum AB male (Invitromex), 0.05% w/v sodium azide, 5 mM EDTA, 1 mg/mL Privigen (Mg) in PBS using goat anti-human TREM2 (R&D) or an appropriate isotype control. Cells were counterstained with F(ab)′2 fragments of an rabbit anti-goat IgG polyclonal antibody conjugated with Alexa488 (LifeTechnologies). All stainings were performed on ice for 30 min Cells were assessed for TREM2 surface expression on a BD LSR Fortessa or a FacsCalibur flow cytometer. Median fluorescence intensities corresponding to the degree of anti-TREM2 bound to cells were evaluated using FlowJo (Millipore INC)
# TREM2 SOMAmers were tested for their ability to stabilize or increase cell surface human TREM2, e.g., by modulating homeostatic dynamics of shedding or internalization. […]
# [2] = target: T7, cell surface human TREM2 on CHO-hTREM2 cells (Homo sapiens, UniProt Q9NZC2); test: TREM2 surface stabilization by SOMAmers on CHO-hTREM2 cells (flow cytometry); format: cell-based; details: 37° C. for 3 hours
# T7 construct: expressed in transfected cells; host or cells: CHO cells, stably double transfected (G418 / hygromycin)
# Experimental: A HEK cell line stably expressing a chimeric receptor consisting of TREM2-extracellular domain and DAP12 was first described by Kleinberger et al. 2014. In analogy a TREM-2/DAP12 chimeric receptor expressing cell line was produced according to standard cell culture procedures. CHO cells were sequentially transfected with eukaryotic expression vectors for human DAP12 (hDAP12) and human TREM2 (hTREM2). Resulting CHO-hTREM2/hDAP12 double transfected cells (CHO-hTREM2) were grown in DMEM/F12 medium supplemented with 10% fetal bovine serum 0.2 mg/ml G418 and 0.2 mg/mL hygromycin. Confluent adherent CHO cells were harvested after treatment with cell dissociation buffer (Gibco 13151-014) and cell surface TREM2 was quantified by flow cytometry as described below. […]
# TREM2 SOMAmers were tested for their ability to stabilize or increase cell surface human TREM2, e.g., by modulating homeostatic dynamics of shedding or internalization. […] Cells were then assessed for surface human TREM2 by flow cytometry.
# [3] = target: T7, cell surface human TREM2 on CHO-hTREM2 cells; test: Binding of biotinylated SOMAmers to cellular TREM2 by flow cytometry; format: cell-based; details: CHO-hTREM2 vs CHO control cells; on ice; streptavidin-APC detection
# Experimental: A HEK cell line stably expressing a chimeric receptor consisting of TREM2-extracellular domain and DAP12 was first described by Kleinberger et al. 2014. In analogy a TREM-2/DAP12 chimeric receptor expressing cell line was produced according to standard cell culture procedures. CHO cells were sequentially transfected with eukaryotic expression vectors for human DAP12 (hDAP12) and human TREM2 (hTREM2). Resulting CHO-hTREM2/hDAP12 double transfected cells (CHO-hTREM2) were grown in DMEM/F12 medium supplemented with 10% fetal bovine serum 0.2 mg/ml G418 and 0.2 mg/mL hygromycin. Confluent adherent CHO cells were harvested after treatment with cell dissociation buffer (Gibco 13151-014) and cell surface TREM2 was quantified by flow cytometry as described below.
# Binding of SOMAmers to cellular TREM2 was assessed by incubation of biotinylated SOMAmers at various concentrations with CHO-hTREM2 cells. In this case binding of SOMAmers to cell surface TREM2 was done on ice for 20-30 min to prevent modulation of cell surface TREM2. […] Cells were thereafter washed with FACS buffer and bound biotinylated SOMAmers were detected via streptavidin-APC conjugate (Biolegend, Inc). Median fluorescence intensities corresponding to the degree of TREM2 SOMAmer bound to cells were acquired on a FacsCalibur flow cytometer and evaluated using FlowJo (Millipore INC).
# [4] = target: T2, human TREM2 stalk region Peptide 76
# [5] = target: T3, human TREM2 stalk region Peptide 77
# [6] = target: T4, human TREM2 stalk region Peptide 80
# [7] = target: T5, human TREM2 stalk region Peptide 78
# [8] = target: T6, human TREM2 stalk region Peptide 79
# T7 sequence (O43914 22-113 partner, one chain of several): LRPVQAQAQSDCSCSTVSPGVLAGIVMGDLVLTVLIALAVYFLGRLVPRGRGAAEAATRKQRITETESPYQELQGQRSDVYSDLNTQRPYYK
molecule,measurement,setting,value
"KX86-94WC: TREM2 SOMAmer, core sequence SEQ ID NO: 13, P = NapdU modified dUTP residue (DNA CCCTCUGUCAACCUCCACACAGGCCUUUGAUGCAAGUAUACAGUGGAAGA; DNA, [NapdU] at 6, 8, 14, 26, 27, 28, 31, 37, 39, 44, backbone and methylation of C not given here; further chemistry not fully specified)",cell surface human TREM2 level (stabilization),[1],stabilized cell surface human TREM2
same,cell surface human TREM2 level (stabilization),[2],stabilized cell surface human TREM2
"UX95-90BC: TREM2 SOMAmer (slow off-rate modified aptamer), core sequence SEQ ID NO: 12, P = NapdU modified dUTP residue (DNA CCCTCGAUCCGGUGGCGGAUCCUAAGUAUUGGCCCGGUCCGCCAAGAAGA; DNA, [NapdU] at 8, 13, 20, 23, 27, 29, 30, 38, backbone and methylation of C not given here; further chemistry not fully specified)",cell surface human TREM2 level (stabilization),[2],stabilized and increased cell surface human TREM-2
"EX83-95HC: control SOMAmer, core sequence SEQ ID NO: 14 (DNA CCCTCCCUAUCGCAAUGACACAUUGGGGUCUCGAGGUGCGCGAUCGAAGA; DNA, [NapdU] at 8, 10, 16, 23, 24, 29, 31, 37, 44, backbone and methylation of C not given here; further chemistry not fully specified)",binding to cell surface human TREM2,[3],did not bind to cell surface human TREM2
B1,TACE cleavage of the Mca-labelled peptide (HPLC/HRMS),[4],"no TACE cleavages were observed for Peptides 76, 79, 77 and 80"
same,TACE cleavage of the Mca-labelled peptide (HPLC/HRMS),[5],"no TACE cleavages were observed for Peptides 76, 79, 77 and 80"
same,TACE cleavage of the Mca-labelled peptide (HPLC/HRMS),[6],"no TACE cleavages were observed for Peptides 76, 79, 77 and 80"
same,TACE cleavage of the Mca-labelled peptide (HPLC/HRMS),[7],"For Peptide 78, two main cleavage products by TACE were found: DAHVEH (termed X01, SEQ ID NO: 25) and SISRSLLEGEIPFP (termed X02, SEQ ID NO: 26)"
same,TACE cleavage of the Mca-labelled peptide (HPLC/HRMS),[8],"no TACE cleavages were observed for Peptides 76, 79, 77 and 80"
